Data: PMC3760248

How the values were obtained:
Experiment in all cases: ITC
MepR(A103S) = target: T1, MepR(A103S) (Staphylococcus aureus, UniProt Q5Y812 1-139, A103S)
T1 sequence: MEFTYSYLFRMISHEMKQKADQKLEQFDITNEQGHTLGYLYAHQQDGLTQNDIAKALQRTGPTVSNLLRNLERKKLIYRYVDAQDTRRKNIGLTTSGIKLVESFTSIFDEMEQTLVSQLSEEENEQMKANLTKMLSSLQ

MepR(F27L/F104A) = target: T2, MepR(F27L/F104A) (Staphylococcus aureus, UniProt Q5Y812 1-139, F27L;F104A)
T2 sequence: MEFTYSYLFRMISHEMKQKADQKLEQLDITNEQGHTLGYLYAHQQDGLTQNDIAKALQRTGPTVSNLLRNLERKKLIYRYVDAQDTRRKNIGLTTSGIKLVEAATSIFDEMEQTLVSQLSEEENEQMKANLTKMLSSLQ

MepR(Q18A) = target: T3, MepR(Q18A) (Staphylococcus aureus, UniProt Q5Y812 1-139, Q18A)
T3 sequence: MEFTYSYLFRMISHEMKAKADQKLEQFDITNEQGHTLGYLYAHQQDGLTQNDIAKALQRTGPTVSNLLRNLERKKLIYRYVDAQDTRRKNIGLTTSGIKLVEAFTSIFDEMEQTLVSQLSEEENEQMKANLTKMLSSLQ

MepR WT = target: T4, MepR WT (Staphylococcus aureus, UniProt Q5Y812 1-139)
T4 sequence: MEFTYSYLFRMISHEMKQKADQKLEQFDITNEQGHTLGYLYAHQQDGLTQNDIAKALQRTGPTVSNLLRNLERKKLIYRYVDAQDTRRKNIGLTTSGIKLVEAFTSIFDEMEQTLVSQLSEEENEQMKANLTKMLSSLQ

B1: mepR operator, palindromic 26-mer (dsDNA)
DNA 1: TATTTAGTTAGATATCTAACTAAATA
DNA 2: TATTTAGTTAGATATCTAACTAAATA
Q: Which results are given for B1?
A: Kd (MepR(A103S)): 42.6 nM; Kd (MepR(F27L/F104A)): 32.3 nM; Kd (MepR(Q18A)): 34.1 nM; Kd (MepR WT): 36.6 nM
